Experimental data: publication PMC9246220

Target: AphB C235S-His6 (Vibrio cholerae, UniProt Q9KT56 1-299, C235S)
Test: EMSA; 0-2 uM protein; affinity similar to wild type; 20 nM DNA, 10 mM Tris-HCl pH 7.5, 1 mM EDTA, 50 mM KCl, 100 ug/ml BSA, 10 ug/ml poly dI-dC, 100 mM DTT when indicated; 20 min at 25 C; 5% PAGE in 0.5X TAE
Conditions: protein: recombinant; chain copies: 2; label: 5'-biotin; blunt

Binder | binding result
hmpA promoter probe (dsDNA) DNA 1: CAATAAATTAGGTTTTGGCATGCAATCTGCTCATTAAGAAGGCTTGTGTAGAGTGGCTCA DNA 2: TGAGCCACTCTACACAAGCCTTCTTAATGAGCAGATTGCATGCCAAAACCTAATTTATTG | binds
tcpP promoter probe (dsDNA) DNA 1: GCAATTAAGTTCTCATTATCAACTGCAGAATTAGATTGCAAATAATTATATTAAAAAAAA DNA 2: TTTTTTTTAATATAATTATTTGCAATCTAATTCTGCAGTTGATAATGAGAACTTAATTGC | binds
